Data as given in EP0817650B1.

How the values were obtained:
[1] = target: T1, MHC Class II products on splenic antigen-presenting cells of BALB/c mice (H-2 d) (mouse) (UniProt P04228); assay: flow cytometry, inhibition of binding to BALB/c splenic APC; competitor: biotinylated peptide Ia
T1 sequence (alpha): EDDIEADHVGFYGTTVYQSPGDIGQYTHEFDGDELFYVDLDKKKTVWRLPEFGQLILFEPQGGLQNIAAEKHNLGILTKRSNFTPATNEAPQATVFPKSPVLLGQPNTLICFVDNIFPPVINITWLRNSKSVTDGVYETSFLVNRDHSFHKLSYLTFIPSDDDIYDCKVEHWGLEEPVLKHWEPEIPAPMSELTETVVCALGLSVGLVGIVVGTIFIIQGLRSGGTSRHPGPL
T1 sequence (beta): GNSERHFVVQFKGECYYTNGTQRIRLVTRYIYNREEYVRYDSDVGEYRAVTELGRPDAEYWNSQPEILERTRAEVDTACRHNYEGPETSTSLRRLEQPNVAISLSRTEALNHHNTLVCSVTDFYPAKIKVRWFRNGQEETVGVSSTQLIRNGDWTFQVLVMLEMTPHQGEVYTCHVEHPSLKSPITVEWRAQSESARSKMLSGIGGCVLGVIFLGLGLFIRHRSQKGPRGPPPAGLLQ

[2] = target: MHC Class II products on splenic antigen-presenting cells of C3H.SW mice (H-2 b) (mouse) (UniProt P14434); assay: flow cytometry, inhibition of binding to C3H.SW splenic APC; competitor: biotinylated peptide Ia
[3] = target: MHC Class II products on splenic antigen-presenting cells of C57BL/6 mice (H-2 b) (mouse) (UniProt P14434); assay: flow cytometry, inhibition of binding to C57BL/6 splenic APC; competitor: biotinylated peptide Ia
[4] = target: T1, MHC Class II products on splenic antigen-presenting cells of BALB/c mice (H-2 d) (mouse); assay: flow cytometry, inhibition of binding to BALB/c splenic APC; competitor: biotinylated peptide IIIa
[5] = target: MHC Class II products on splenic antigen-presenting cells of C3H.SW mice (H-2 b) (mouse) (UniProt P14434); assay: flow cytometry, inhibition of binding to C3H.SW splenic APC; competitor: biotinylated peptide IIIa
[6] = target: MHC Class II products on splenic antigen-presenting cells of C57BL/6 mice (H-2 b) (mouse) (UniProt P14434); assay: flow cytometry, inhibition of binding to C57BL/6 splenic APC; competitor: biotinylated peptide IIIa
[7] = target: MHC Class II products on splenic antigen-presenting cells of SJL mice (H-2 s) (mouse); assay: flow cytometry, inhibition of binding to SJL splenic APC; competitor: biotinylated peptide Ia
[8] = target: MHC Class II products on splenic antigen-presenting cells of SJL mice (H-2 s) (mouse); assay: flow cytometry, inhibition of binding to SJL splenic APC; competitor: biotinylated peptide IIIa

Question: Which results are given for “34-5-3 (anti-I-A^b, Pharmingen) (antibody)”?
Answer: %inhibition [1]: 0%; %inhibition [2]: 60%; %inhibition [3]: 82%; %inhibition [4]: 0%; %inhibition [5]: 84.4%; %inhibition [6]: 59.3%

Question: With “MKD6 (anti-I-A^d, Beckton-Dickinson) (antibody)” as the substance, how does the %inhibition [7] read?
Answer: The %inhibition was 0%.

Question: What about the %inhibition [8] of the same substance?
Answer: Its %inhibition is 0%.

Question: What about the %inhibition [1] of the same substance?
Answer: Its %inhibition is 76.7%.

Question: What about the %inhibition [2] of the same substance?
Answer: The %inhibition was 0%.

Question: And the %inhibition [3]?
Answer: The %inhibition was 0%.

Question: And the %inhibition [4]?
Answer: The %inhibition was 100%.

Question: And the %inhibition [5]?
Answer: The %inhibition was 25%.

Question: What about the %inhibition [6] of the same substance?
Answer: The %inhibition was 0%.

Question: How did the %inhibition [7] turn out when 10.3.6.2 (anti-I-A^s) (antibody) was run?
Answer: Its %inhibition is 100%.

Question: What about the %inhibition [8] of the same substance?
Answer: Its %inhibition is 92.8%.
